We go through 1 protein from PMC10514044, “Structural basis of the activation of TRPV5 channels by long-chain acyl-Coenzyme-A” (Nature Communications, 2023).

The data set concerns the molecule itself. The data set is described as follows: cryo-EM structure; TRPV5 in lipid nanodiscs (MSP2N2, soy polar lipids), incubated with 400 uM oleoyl-CoA or 400 uM diC8-PI(4,5)P2 for 45 min; 20 mM HEPES pH 8.0, 150 mM NaCl, 2 mM TCEP; C4 symmetry imposed.

B1: full-length rabbit TRPV5 (natural protein, UniProt Q9XSM3 1-730, looked up)
chain: MGACPPKAKGPWAQLQKLLISWPVGEQDWEQYRDRVNMLQQERIRDSPLLQAAKENDLRLLKILLLNQSCDFQQRGAVGETALHVAALYDNLEAATLLMEAAPELAKEPALCEPFVGQTALHIAVMNQNLNLVRALLARGASVSARATGAAFRRSPHNLIYYGEHPLSFAACVGSEEIVRLLIEHGADIRAQDSLGNTVLHILILQPNKTFACQMYNLLLSYDEHSDHLQSLELVPNHQGLTPFKLAGVEGNTVMFQHLMQKRKHVQWTCGPLTSTLYDLTEIDSWGEELSFLELVVSSKKREARQILEQTPVKELVSFKWKKYGRPYFCVLASLYILYMICFTTCCIYRPLKLRDDNRTDPRDITILQQKLLQEAYVTHQDNIRLVGELVTVTGAVIILLLEIPDIFRVGASRYFGQTILGGPFHVIIITYASLVLLTMVMRLTNMNGEVVPLSFALVLGWCSVMYFARGFQMLGPFTIMIQKMIFGDLMRFCWLMAVVILGFASAFHITFQTEDPNNLGEFSDYPTALFSTFELFLTIIDGPANYSVDLPFMYCITYAAFAIIATLLMLNLFIAMMGDTHWRVAQERDELWRAQVVATTVMLERKMPRFLWPRSGICGYEYGLGDRWFLRVENHHDQNPLRVLRYVEAFKCSDKEDGQEQLSEKRPSTVESGMLSRASVAFQTPSLSRTTSQSSNSHRGWEILRRNTLGHLNLGLDLGEGDGEEVYHF
notes: TRPV5, rabbit, full length, in a YepM vector; also called Transient receptor potential vanilloid 5; TRPV5_(CoA Open)
On to B1, for which the binding result is “binds”.
